Test results reported in patent US20100093608A1 (Eli Lilly, published 2010).
Where two headings read alike, the source gives them in different places.

T1: erythropoietin receptor on TF-1 cells (UniProt P19235 25-508, limits assumed)
T1 sequence (looked up): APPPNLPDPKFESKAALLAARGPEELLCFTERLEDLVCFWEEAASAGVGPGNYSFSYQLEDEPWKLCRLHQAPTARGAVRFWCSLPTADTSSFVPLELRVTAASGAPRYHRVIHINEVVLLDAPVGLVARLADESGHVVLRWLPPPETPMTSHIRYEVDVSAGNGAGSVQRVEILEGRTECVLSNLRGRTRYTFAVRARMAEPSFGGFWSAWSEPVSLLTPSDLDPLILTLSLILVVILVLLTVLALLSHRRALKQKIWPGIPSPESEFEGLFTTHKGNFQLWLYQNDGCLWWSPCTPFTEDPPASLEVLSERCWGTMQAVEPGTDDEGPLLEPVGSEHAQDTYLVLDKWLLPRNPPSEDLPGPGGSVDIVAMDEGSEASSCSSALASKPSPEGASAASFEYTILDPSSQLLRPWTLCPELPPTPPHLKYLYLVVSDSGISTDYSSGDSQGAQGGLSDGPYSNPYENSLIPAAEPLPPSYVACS


Assays:
[1] = target: T1, erythropoietin receptor on TF-1 cells
[2] = target: T1, erythropoietin receptor on TF-1 cells; remark: listed apart in the source
[3] = target: T1, erythropoietin receptor on TF-1 cells; remark: listed apart in the source
[4] = target: T1, erythropoietin receptor on TF-1 cells; assay: cell-based or functional assay
[5] = target: T1, erythropoietin receptor on TF-1 cells; assay: cell-based or functional assay; remark: listed apart in the source
[6] = target: T1, erythropoietin receptor on TF-1 cells; assay: cell-based or functional assay; remark: listed apart in the source
[7] = target: T1, erythropoietin receptor on TF-1 cells; assay: cell-based or functional assay; remark: listed apart in the source

Row | Molecule | Relative activity compared to wt fEPO (TF-1 proliferation) [2] | other results
1 | A128 (ligand) | 1.4 X | fold more active than WT (TF-1 proliferation, EC 50 ng/ml) [1]: 1.4 x
2 | D55 (ligand) | 1.4 X | 
3 | E21 (ligand) | 3.1 X | 
4 | E31 (ligand) | 1.4 X | 
5 | E37 (ligand) | 1.2 X | EC50 (read off the curve) [2]: 3 ng/mL
6 | E72 (ligand) | 1.2 X | EC50 (TF-1 proliferation, 450nm; stored 5 weeks at +4 degrees C) [3]: 2.1 ng/mL; EC50 (TF-1 proliferation, 450nm; stored 5 weeks at -80 degrees C) [3]: 2.1 ng/mL
7 | F133 (ligand) | 2.2 X | 
8 | K116 (ligand) | 0.7 X | 
9 | L130 (ligand) | 2.6 X | 
10 | P129 (ligand) | 0.9 X | 
11 | R53 (ligand) | 1.6 X | 
12 | R76 (ligand) | 0.6 X | fold less active than WT (TF-1 proliferation, EC 50 ng/ml) [1]: 1.6 x
13 | R131 (ligand) | 0.8 X | 
14 | R163 (ligand) | 1.1 X | 
15 | S36 (ligand) | 0.9 X | 
16 | S120 (ligand) | 1.6 X | 
17 | T132 (ligand) | 3.2 X | 
18 | Y49 (ligand) | 2.6 X | 
19 | wild type feline erythropoietin (fEPO) (ligand) APPRLICDSRVLERYILEAREAENVTMGCAEGCSFSENITVPDTKVNFYTWKRMDVGQQAVEVWQGLALLSEAILRGQALLANSSQPSETLQLHVDKAVSSLRSLTSLLRALGAQKEATSLPEATSAAPLRTFTVDTLCKLFRIYSNFLRGKLTLYTGEACRRGDR |  | EC50 (TF-1 proliferation; Starting [fEPO] 250ng/ml; Theoretical Activity 0.5x, Actual Activity 0.6x) [4]: 4.7 ng/mL; EC50 (TF-1 proliferation; Starting [fEPO] 500ng/ml; Theoretical Activity 1x, Actual Activity 1x) [4]: 2.8 ng/mL; EC50 (TF-1 proliferation; Starting [fEPO] 1000ng/ml; Theoretical Activity 2x, Actual Activity 2x) [4]: 1.4 ng/mL; EC50 (TF-1 proliferation, 450nM) [5]: 3.2 ng/mL; EC50 (read off the curve) [6]: ~3 ng/mL; EC50 (read off the curve) [7]: ~2 ng/mL
